Data taken from the domain aggregation screens of Martell et al. (2025).

Assay: soluble fraction after stress (log2 fold change); higher = more stays soluble; pooled small domains, quantitative proteomics
Details: stress: 75 degC
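Note: 20 min heating vs room temperature control held 20 min.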

Sequence | soluble fraction (log2)
HMESWNRARILEKIRELHAQGVALNNASMRRLGYRGMMEAAARPQNFGSWEAAVRAAGIDYDRV | -0.275
HMETAVMPDVMKLDSTTAIQALKDKGFATIETYEVKSDRPAGVVVRQSETADSVVALSKEILLGVSNGADY | ≥ 1.04
HMETGFADTLRKFRKEADMTQEKLAEALGVTTGAVYKWENGRSTPEVRLLVEMADLFGTSVDALLDYKVR | -1.33
HMETGKLIKELRLKKGMTQEELADKTEVSSRTIQRIENGEVDPRAYTLQMIARALEVDYSLFME | -0.408
HMETIELSAPGGVRLDKLIADGTELSRSAAVKLIEQGNVLVNGSPAGKKDIPAAGAAVEITLPEPQ | 0.0135
HMETIGENIKTYRQKKGYTQEEVANRLHVTRQTISKWEKNYSIPDAEVLVKLADVLEVQTSQLLGV | -0.374
HMETIGKRVRAARQELGLTMKQLHEQTGLSTGNISDIENDRNTPSVSSLVALGRALRRSLDWLLTGEE | -0.959
HMETISEIWRLIDGLDEIYRVPLTMYYRSNRSVREIAETLGLSARTVETRIYRARRMIREKWSN | -2.06
HMETITDRLNRRSLELNVSQADIIRTTGAGRGTVSGWFSGANAPSAKYLESLAVALKTSTTWLLSGKD | -2.23
HMETKERDEQFLEMIRQNEGIIFKVASFYVDKEHPIGDLYQEVVLNLWKGYPSFRGESKYSTWIYRIALNT | 0.058
HMETKPTELMLEVHELRIGMFVHLDLGWMDHPFPLNRFKISTNSQIEQIKGLRLKQVKVMTALSDPTALS | -2.29
HMETKQYIVEAQDEGTRLDVYLTKELGQSRSYVQSLVKEGHVQVNGKTGKSNLKLSSSSEILVTIPEVQ | 0.067
HMETLKINTHLGTLNLKKRGKKGTWQINIYFKNIEGDNHYRQSTGTNQLELAKAKAMNMITTEYSNRLAGI | -1.67
HMETMSYAEFNAIRIGKAKLMLADPSLKIWEISEAVGYTDTAHFARTFKKLEGMSANEYRNSL | -0.862
HMETNFTGTRIATARKAKNMSQAQLAQQLFISPQAVGKWERGESIPDIVTVVKLADVLGVDLNYFSE | -0.572
HMETPQIVARGDLITMVFRSGSLVLTAKGKALENGAMGDTIRVVNSDSNKTLAARVSASREVTVSE | -0.549
HMETPSNTAGITHATSDGYIFKGESDIIGRNSFGFIVKHGSHNHIIPFDSLRGTKWEYLINKYT | 0.000248
HMETSVDEVYKKIQAYIEAEDKHKPLSDQKLAEQLQSDGLKVSRRTVAKYREKLNIASSSKRKR | 0.242
HMETTVPNVLNHNISTGEILLKENNLNFRIQYIPSNKDEAVGTIINSVPTSGEKVKFGTVVDLKVL | 0.146

Sequence | soluble fraction (log2)
HMETVRHFRLDWSQAADRLDKVLASLMNDVSRARIQEWIRLGAVSVNGEILTDVRAKVAGGDAIDVTPQTA | -0.722
HMETVRLSVDAQGAYYWNEQRVDDSALPDLLREASGRKPQPDLHIRGDKAVRYERVAEAMAAAQRAGLKKI | 0.272
HMETVVTEVKTTDVVNIRTSDSETADKLSKAAIGDTFPLLEERGNGWSKVAYNGEEAFIKSDYLEPSKTE | 0.0124
HMETYEFNITDKEQTGMRVDKLLPELNSDWSRNQIQDWIKAGLVVANDKVVKSNYKVKLNDHIVVTEKEV | 0.0567
HMETYPINVETTGTNVLLRTGPSTSSNIIKTITDKGTVFLSIERGINSDWQKVVTPDGTIGYMSGKY | 0.00405
HMEVAVQFIEFKIPENHAWIGKEIREITFPPESILVLIIRDGKKLVPNGKTVLKEGDSLILSGKASD | -1.43
HMEVDDEAIYQGHEPSIRLHRLLKDVGYNSALLPSVVTQIFKDFPGIELAKALPIAMQLLNED | -0.617
HMEVFGDTKEEQMIIDILKLGITDLEHLQAKSMLEPAIFSQTLTMLEISGKIRPLGAGHWTL | -2.87
HMEVFTPSEANVAEAREILAAMATAKANGEGATVYKGRLVDIASIKQAEVIVRQSEMIQSAH | 0.696
HMEVIDQLFKIALTLFDIDKGENNSISQDLVDKVIEQMKTTAPTFIKRELSEDEVKKLRFEIQNHFNV | -0.482
HMEVKSGFVHLTGAVKSPGVYPISIGMRLFEVIALAGGFTAKADRESVNLARTVTDGEQIIVSGSG | -3.72
HMEVLEGFIEDIKFKSEESGYTVAKLNNRNKSIVIVGTMPFISEGQHVKLTGEWKIHQKFGAQFNVKELEE | -0.923
HMEVMYFIYQQEEPMRIDKFLVNEMEDFSRNSIQIYIKDNHVLVNDKVVKANYILKKGDAISITIPDPI | -1.14
HMEVNMEEKMEFVHSYIKTHKTFLFRQLLSESKSRTQVIVTFLVILELIKGGKISVTQENRTDDILINSL | 0.0528
HMEVPDTIIRLRELVAAMPEQWQKVYRLVFMEGLSKAKAGKKIGISDVRVGQLVKKINAAIAGDETLK | -1.01
HMEVPMELPRQLRANRERLGLSQEDVAHAIYVSRQTMSSWERGKTYPDVQSLMLLSHLFGISIDELVKGDV | -1.57
HMEVPVQYIKFKIPENHFWAKKKVADIILPPETLLVLLQRGSDKMIPDGETVLLPEDTLVLIAKAPG | -0.479
HMEVSVPDFTGMSKSDAQNAAKEAGLTVNFEEDYDNQVPAGQVIRSNPSAGEKVKKNSSVTVTLSKGSN | 0.128
HMEVSYSLPRFHKGKNPYVDFYQVDPRTLRMRRKKFLLRGVRDAVLLEQRAADLVALLTERLHSGWNAWDD | -2.1
